Results taken from publication doi:10.1101/2022.05.30.493996.

Target: Gp57 (purified) (phage SECΦ27)
Assay: ITC

**Q.** For “CapRel^SJ46 (purified, full-length) (enzyme)”, which Kd is on record?
**A.** 190 nM
